This is an account of results in IntAct's records for PubMed 19229295.

B1: Bone morphogenetic protein receptor type-1B (Homo sapiens), O00238 (parent)
chain: MLLRSAGKLNVGTKKEDGESTAPTPRPKVLRCKCHHHCPEDSVNNICSTDGYCFTMIEEDDSGLPVVTSGCLGLEGSDFQCRDTPIPHQRRSIECCTERNECNKDLHPTLPPLKNRDFVDGPIHHRALLISVTVCSLLLVLIILFCYFRYKRQETRPRYSIGLEQDETYIPPGESLRDLIEQSQSSGSGSGLPLLVQRTIAKQIQMVKQIGKGRYGEVWMGKWRGEKVAVKVFFTTEEASWFRETEIYQTVLMRHENILGFIAADIKGTGSWTQLYLITDYHENGSLYDYLKSTTLDAKSMLKLAYSSVSGLCHLHTEIFSTQGKPAIAHRDLKSKNILVKKNGTCCIADLGLAVKFISDTNEVDIPPNTRVGTKRYMPPEVLDESLNRNHFQSYIMADMYSFGLILWEVARRCVSGGIVEEYQLPYHDLVPSDPSYEDMREIVCIKKLRPSFPNRWSSDECLRQMGKLMTECWAHNPASRLTALRVKKTLAKMSESQDIKL
partner: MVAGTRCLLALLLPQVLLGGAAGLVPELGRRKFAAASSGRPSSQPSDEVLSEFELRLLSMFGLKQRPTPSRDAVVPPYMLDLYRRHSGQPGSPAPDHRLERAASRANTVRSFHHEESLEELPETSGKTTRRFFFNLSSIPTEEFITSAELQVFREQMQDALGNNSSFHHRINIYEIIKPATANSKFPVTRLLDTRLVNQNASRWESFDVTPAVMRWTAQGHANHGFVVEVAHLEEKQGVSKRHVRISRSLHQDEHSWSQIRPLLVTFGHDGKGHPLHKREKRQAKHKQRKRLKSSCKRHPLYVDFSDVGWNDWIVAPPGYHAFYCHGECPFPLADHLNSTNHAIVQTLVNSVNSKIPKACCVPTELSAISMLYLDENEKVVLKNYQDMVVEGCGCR
B2: Bone morphogenetic protein receptor type-1B (Homo sapiens), O00238 (parent)
chain: B1 chain
partner: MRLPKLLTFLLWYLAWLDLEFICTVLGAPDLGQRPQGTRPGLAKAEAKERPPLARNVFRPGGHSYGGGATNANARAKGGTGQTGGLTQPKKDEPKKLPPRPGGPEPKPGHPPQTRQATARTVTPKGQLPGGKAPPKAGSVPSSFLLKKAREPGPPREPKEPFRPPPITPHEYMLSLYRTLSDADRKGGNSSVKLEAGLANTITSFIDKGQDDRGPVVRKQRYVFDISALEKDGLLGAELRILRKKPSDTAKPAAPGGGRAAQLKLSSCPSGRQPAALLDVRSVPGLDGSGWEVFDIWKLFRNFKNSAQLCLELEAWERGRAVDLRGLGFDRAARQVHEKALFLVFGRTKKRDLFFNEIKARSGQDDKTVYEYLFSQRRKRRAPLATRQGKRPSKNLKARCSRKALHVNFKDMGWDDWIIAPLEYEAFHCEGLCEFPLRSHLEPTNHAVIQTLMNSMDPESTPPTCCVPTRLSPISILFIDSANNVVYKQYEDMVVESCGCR
B3: Growth/differentiation factor 5 (Homo sapiens), P43026 (parent)
chain: B2 partner

In one assay the parent is B1. Particulars: with bmp2_human BMP2, P12643.
In the case of F79A, the “effect of a mutation on the interaction” value is “disrupting interaction”.

Another assay covers variants of B1. Particulars: with bmp2_human BMP2, P12643. The source holds these as a separate data set.
Consider H36G, for which the “effect of a mutation on the interaction” value is “decreasing interaction”. Take H35S: the “effect of a mutation on the interaction” value is on record as “decreasing interaction”.

A further assay covers variants of B1. As to conditions: with bmp2_human BMP2, P12643. This is another data set of the same source.
On to Q80A, for which the “effect of a mutation on the interaction” value is “decreasing interaction”.

Another assay covers variants of B2. As to conditions: with gdf5_human GDF5, P43026.
In the case of H36G, the “effect of a mutation on the interaction” value is reported as “decreasing interaction”. The same measure, in the same setting: the same measure for H35S: “decreasing interaction”.

Variants of B2 are the subject of a further assay. Particulars: with gdf5_human GDF5, P43026. This is another data set of the same source.
For the variant Q80A, the “effect of a mutation on the interaction” value is “decreasing interaction”.

Variants of B2 are the subject of another assay. Particulars: with gdf5_human GDF5, P43026. The source holds these as a separate data set.
F79A: the “effect of a mutation on the interaction” value was “disrupting interaction”.

The variants in the next assay derive from B3. Particulars: with bmr1b_human BMPR1B.
On to R438L, for which the “effect of a mutation on the interaction” value is listed as “increasing interaction”.

The variants in a further assay derive from B3. As to conditions: with bmpr2_human BMPR2, Q13873.
Sequence of bmpr2_human BMPR2, Q13873 (Q13873 whole entry): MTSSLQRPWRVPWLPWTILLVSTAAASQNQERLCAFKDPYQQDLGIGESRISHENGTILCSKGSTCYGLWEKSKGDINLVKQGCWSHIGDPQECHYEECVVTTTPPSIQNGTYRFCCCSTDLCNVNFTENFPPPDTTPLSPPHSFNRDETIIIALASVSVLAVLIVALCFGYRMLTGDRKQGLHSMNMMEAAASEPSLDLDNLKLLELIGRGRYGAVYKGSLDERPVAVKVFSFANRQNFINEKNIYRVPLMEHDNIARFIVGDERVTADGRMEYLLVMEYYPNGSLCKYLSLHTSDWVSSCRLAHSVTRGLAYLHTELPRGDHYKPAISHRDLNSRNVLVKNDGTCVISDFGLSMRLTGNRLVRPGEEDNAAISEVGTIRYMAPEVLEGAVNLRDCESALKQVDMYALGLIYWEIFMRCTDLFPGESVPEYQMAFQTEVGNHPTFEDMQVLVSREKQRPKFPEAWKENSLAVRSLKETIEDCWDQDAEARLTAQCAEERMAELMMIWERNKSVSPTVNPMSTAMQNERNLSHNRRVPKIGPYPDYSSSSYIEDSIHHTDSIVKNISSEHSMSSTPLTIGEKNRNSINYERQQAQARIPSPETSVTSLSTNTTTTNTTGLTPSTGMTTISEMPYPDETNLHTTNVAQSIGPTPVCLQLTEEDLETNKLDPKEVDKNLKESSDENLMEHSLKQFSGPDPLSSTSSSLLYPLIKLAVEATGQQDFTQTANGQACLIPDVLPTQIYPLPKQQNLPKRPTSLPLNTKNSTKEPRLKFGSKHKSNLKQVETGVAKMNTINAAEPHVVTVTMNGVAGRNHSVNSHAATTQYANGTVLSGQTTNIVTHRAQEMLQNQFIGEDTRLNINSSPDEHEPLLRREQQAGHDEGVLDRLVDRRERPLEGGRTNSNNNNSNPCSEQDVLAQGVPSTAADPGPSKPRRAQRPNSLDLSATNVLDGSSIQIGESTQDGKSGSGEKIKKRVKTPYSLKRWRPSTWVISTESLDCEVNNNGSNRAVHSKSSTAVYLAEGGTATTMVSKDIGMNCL
On to R438L, for which the “effect of a mutation on the interaction” value was “increasing interaction”.

Variants of B3 are the subject of another assay. As to conditions: with bmr1a_human BMPR1A.
Turning to R438L, the “effect of a mutation on the interaction” value is given as “increasing interaction”.

The variants in a further assay derive from B3. As to conditions: with bmpr2_human BMPR2, Q13873. The source holds these as a separate data set.
As for R438A, the “effect of a mutation on the interaction” value is “decreasing interaction”.

In another assay the parent is B3. Particulars: with bmr1b_human BMPR1B. The source holds these as a separate data set.
L441P: the “effect of a mutation on the interaction” value was “decreasing interaction”.

Variants of B3 are the subject of a further assay. Particulars: with bmpr2_human BMPR2, Q13873. This is another data set of the same source.
For L441P, the “effect of a mutation on the interaction” value is on record as “increasing interaction”.

Variants of B3 are the subject of a further assay. Particulars: with bmr1a_human BMPR1A. This is another data set of the same source.
On to L441P, for which the “effect of a mutation on the interaction” value is reported as “disrupting interaction”.
